Paper PMC7040160, “Indium-111-labeled CD166-targeted peptide as a potential nuclear imaging agent for detecting colorectal cancer stem-like cells in a xenograft mouse model” (EJNMMI Research, 2020)
Blank lines part the entries; values can stand above or below the compound they belong to. Residues, ends and D or L forms follow the SMILES beside them. No end group written: not given here. *: point of attachment. X1 = O=C(O)CN(CCN(CCN(CC(=O)O)CC(=O)O)C(CCCCNC(=O)CCCN1C(=O)CC(*)C1=O)C(=O)O)CC(=O)O

Assays:
[1] = tested on: CD166^+HCT15 xenograft mice; test: in vivo; conditions: mouse
Protocol: (§1) CD166^+HCT15 cells were subcutaneously injected into the right hindlimb of mice for establishing CD166-expressed CRC xenograft mouse model. After tumor formation, the ^111In-DTPA, ^111In-DTPA-G18C, ^111In-DTPA-CD166tp-C, and ^111In-DTPA-CD166tp-G18C (148 MBq/kg/mouse) were intravenously injected into mice […]. After 2, 4, 24, and 48 h post-injection, mice were sacrificed and collected blood and organs including the brain, heart, lung, liver, spleen, kidneys, stomach, small intestine, colon, muscle, and tumor. The organ weight was measured. The radioactivity in blood and organs was determined by a 1470 WIZARD gamma counter (PerkinElmer). The percentage of injected dose per gram of tissue (%ID/g) was calculated.

in vivo = conditions: mouse, iv, 148 MBq/kg/mouse, total radioactivity
Protocol: as §1

[2] = tested on: CD166^+HCT15 xenograft mice; conditions: mouse, in vivo
Protocol: The male BALB/c nude mice were subcutaneously inoculating CD166^+HCT15 cells (1 × 10^6 cells) for 2 weeks, and then the ^111In-DTPA, ^111In-DTPA-G18C, ^111In-DTPA-CD166tp-C, and ^111In-DTPA-CD166tp-G18C (740 MBq/kg/mouse) were intravenously injected into mice. The imaging of CD166 in mice at 2, 4, 24, and 48 h were detected by a nano single-photon emission computed tomography/computed tomography (nanoSPECT/CT; Mediso Medical Imaging Systems, Budapest, Hungary). For competitive study, the CD166^+HCT15-derived xenograft mice were pre-treated with CD166tp-G18C (0, 10, and 50 mg/kg) for 6 h. Every mouse then received 740 MBq/kg ^111In-DTPA-CD166tp-G18C via intravenous injection for 24 and 48 h. The competitive CD166 images were observed by a nanoSPECT/CT.

[3] = tested on: CD166^+HCT15 and CD166^−HCT15 cells; test: Cell viability assay (CCK-8), cell resistance; conditions: 1, 5 and 50 μM, 24 h; absorbance 450 nm; Fig. 3b; n ≥ 5
CD166 protein = target: T1, CD166 protein (Homo sapiens, UniProt Q13740); test: CD166tp-G18C and CD166 protein interaction assay (immunoprecipitation with CD166 antibody); format: binding; parameters: endogenous in cells; host or cells: HCT15 cells (sorted CD166+ and CD166- populations); conditions: Fig. 5c
T1 sequence (Q13740 28-583): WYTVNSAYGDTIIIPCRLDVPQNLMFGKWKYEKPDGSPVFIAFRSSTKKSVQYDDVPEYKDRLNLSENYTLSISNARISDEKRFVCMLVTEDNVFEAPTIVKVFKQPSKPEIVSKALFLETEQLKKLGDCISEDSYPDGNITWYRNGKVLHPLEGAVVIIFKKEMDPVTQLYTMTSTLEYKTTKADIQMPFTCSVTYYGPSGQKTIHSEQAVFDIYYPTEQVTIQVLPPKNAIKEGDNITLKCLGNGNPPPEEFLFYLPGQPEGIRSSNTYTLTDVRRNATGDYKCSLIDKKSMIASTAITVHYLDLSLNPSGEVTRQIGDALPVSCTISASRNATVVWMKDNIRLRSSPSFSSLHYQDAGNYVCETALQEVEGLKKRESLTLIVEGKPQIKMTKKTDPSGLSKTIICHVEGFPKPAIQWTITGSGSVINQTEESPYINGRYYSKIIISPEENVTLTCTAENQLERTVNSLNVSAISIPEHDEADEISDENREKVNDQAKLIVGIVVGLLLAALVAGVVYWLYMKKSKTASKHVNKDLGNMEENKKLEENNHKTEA
Protocol: HCT15 cells (1 × 10^6 cells) were incubated with 20 μg/mL CD166tp-G18C-FITC in the presence or absence of 20 μg/mL CD166tp-G18C at 4 °C for 1 h. After treating immunoblotting lysis buffer with protease inhibitors cocktail (Hycell International, Taipei, Taiwan), the mixture solution was centrifuged at 14,000 rpm (4 °C) for 10 min. The supernatant was treated with or without 2 μg/mL biotinylated-CD166 antibody (Novus Biologicals, Littleton, CO, USA)-conjugated streptavidin agarose beads (Sigma-Aldrich) at 4 °C overnight. In the competitive group, cells were pre-treated with CD166tp-G18C (20 μg/mL) for 1 h at 4 °C. The fluorescence of immunoprecipitates was detected by an ELISA reader (Perkin Elmer).

CD166^+HCT15 cells [4] = test: CD166tp-G18C binding assay by flow cytometry; format: cell-based, human; conditions: Fig. 5a
Protocol: For CD166 detection on the cellular surface, the optimized density (1 × 10^6 cell) of CD166^+HCT15 and CD166^−HCT15 cells were added with 1 mL PBS with 20 μg IgG-FITC and FITC-conjugated CD166 antibody (CD166ab-FITC) for 1 h. For the CD166tp-G18C binding assay, CD166^+HCT15 and CD166^−HCT15 cells were added with 1 mL PBS with 20 μg CD166tp-G18C-FITC and G18C-FITC for 1 h. In competitive group, CD166^+HCT15 cells were pre-treated with CD166tp-G18C (20 μg/mL) for 1 h and then added 20 μg/mL CD166tp-G18C-FITC for 1 h. After PBS washing, cells were collected for flow cytometric analysis using a FACSCalibur Flow Cytometer (BD Bioscience, San Diego, CA, USA).

CD166^+HCT15 cells [5] = test: CD166tp-G18C binding assay by immunofluorescence staining; format: cell-based, human; conditions: fixed, 20 μg/mL, 2 h, Fig. 5b
Protocol: (§2) The CD166tp-G18C binding assay was determined by immunofluorescence staining in both CD166^−HCT15 and CD166^+HCT15 cells. Briefly, cells (1 × 10^4 cells) were seeded in 4-well Millicell EZ slides (Merck Millipore, Germany) with culture medium at 37 °C and 5% CO2 for 16 h. Cells were fixed using 4% paraformaldehyde for 30 min at 37 °C. The fixed-cells were then incubated in the SuperBlock Blocking Buffers (Thermo Fisher Scientific, USA) for 30 min. Cells were incubated with CD166tp-G18C-FITC (20 μg/mL) for 2 h. DAPI was used to stain the cell nuclei at a concentration of 0.2 μg DAPI/mL PBS for 10 min. The images were captured by a fluorescence microscope (BX53, Olympus, Japan) coupled to a CCD camera. Digital images were analyzed by an Image-Pro Plus software (Media Cybernetics, USA).

CD166^−HCT15 cells = test: as above; format: cell-based, human; conditions: fixed, 20 μg/mL, 2 h, Fig. 5b
Protocol: as §2

Compound: CC(C)C[C@H](NC(=O)[C@H](CC(N)=O)NC(=O)[C@H](CO)NC(=O)[C@H](CC(N)=O)NC(=O)CNC(=O)[C@H](CCC(=O)O)NC(=O)[C@H](CO)NC(=O)[C@@H](N)CC(=O)O)C(=O)N[C@@H](CS)C(=O)N[C@@H](CO)C(=O)N[C@@H](CCC(N)=O)C(=O)N[C@@H](CO)C(=O)NCC(=O)NCC(=O)NCC(=O)NCC(=O)NCC(=O)NCC(=O)NCC(=O)NCC(=O)NCC(=O)NCC(=O)NCC(=O)NCC(=O)NCC(=O)NCC(=O)NCC(=O)NCC(=O)NCC(=O)NCC(=O)N[C@@H](CSC1CC(=O)N(CCCC(=O)NCCCCC(C(=O)O)N(CCN(CC(=O)O)CC(=O)O)CCN(CC(=O)O)CC(=O)O)C1=O)C(=O)O (some centres unmarked) [^111In-DTPA-CD166tp-G18C, metal not drawn] (H-DSEGNSNLCSQSGGGGGGGGGGGGGGGGGGC(X1)-OH; N-terminus and C-terminus assumed)
ratio of tumor-to-blood (T/B) [1]: remarkably increased
ratio of tumor-to-muscle (T/M) [1]: remarkably increased
tumor-to-blood ratios [1]: 5.94 ± 0.51
tissue to tissue ratio at 48 h (in vivo): 48.9 ± 5.03
tissue uptake at 4 h (in vivo): 10.1 ± 1.26 %ID/g
tissue uptake at 24 h (in vivo): 11.1 ± 2.2 %ID/g
difference of counts between background and tumor area (nanoSPECT/CT) [2]: about 8 times

Compound: COc1cccc2c1C(=O)c1c(O)c3c(c(O)c1C2=O)C[C@@](O)(C(=O)CO)C[C@@H]3O[C@H]1C[C@H](N)[C@H](O)[C@H](C)O1 [doxorubicin]
resistance of CD166^+HCT15 cells as compared to CD166^−HCT15 cells (cell viability, CCK-8) [3]: significant resistance

competition: effect of pretreatment on CD166tp-G18C-FITC binding (immunoprecipitation assay) (CD166 protein; pre-treated with 20 μg/mL for 1 h at 4 °C): could be inhibited
Compound: DSEGNSNLCSQSGGGGGGGGGGGGGGGGGGC [CD166tp-G18C, Glycine18-Cysteine-linked CD166-targeted peptide]
competition: effect of pretreatment on binding efficiency of CD166tp-G18C-FITC (flow cytometry) (CD166^+HCT15 cells [4]; CD166^+HCT15 cells pre-treated with 20 μg/mL for 1 h, then 20 μg/mL CD166tp-G18C-FITC 1 h): markedly decreased the binding efficiency of CD166tp-G18C-FITC

binding via CD166 protein (fluorescence of CD166 antibody immunoprecipitates) (CD166 protein; CD166^+HCT15 cells, 20 μg/mL, 1 h, 4 °C, biotinylated-CD166 antibody 2 μg/mL, n ≥ 3): could bind
Compound: CD166tp-G18C-FITC: FITC-labeled CD166tp-G18C (DSEGNSNLCSQSGGGGGGGGGGGGGGGGGGC; cysteine pairing not given here; also: FITC label, site not given here)
fluorescence of CD166tp-G18C-FITC on cells (flow cytometry) (CD166^+HCT15 cells [4]; CD166^+HCT15 cells, 20 μg/mL, 1 h, n ≥ 3): significantly increased
binding ability by immunofluorescence (CD166^+HCT15 cells [5]): increased
binding ability by immunofluorescence (CD166^−HCT15 cells): but not in CD166^−HCT15 cells
